Reference: paper doi:10.1101/2021.04.18.440338

Key:
[1] = molecular target: Rabbit skeletal muscle actin (RMA), as filaments (rabbit) (UniProt P68135)
[2] = molecular target: GST-549-SNAP-N-IQGAP1 (GST-SNAP-N-IQGAP1-6His, 1-522) (UniProt P46940); assay: single-molecule step photobleaching
[3] = molecular target: Rabbit skeletal muscle actin (RMA), as filaments (rabbit) (UniProt P68135); assay: single-molecule microfluidics-assisted TIRF microscopy

| barbed end depolymerization rate in mf-TIRF: IC50 of N-IQGAP1 [1] | stoichiometry N [2] | average dwell time on filament sides [3] | koff [3] | Substance |
| --- | --- | --- | --- | --- |
| 0.3 nM |  |  |  | 6His-N-IQGAP1 (1-522) (from UniProt P46940 1-522) (domain or fragment) |
|  | 2 | 6.8 min | 0.0025 s⁻¹ | GST-549-SNAP-N-IQGAP1 (GST-SNAP-N-IQGAP1-6His, 1-522) (from UniProt P46940 1-522) (domain or fragment) |
